Measured values from PMC7972335.
“And” between values parts separate entries of the source, which are not always exact repeats. Identical values can stand only once.

Experiments:
[1] = molecular target: trypsin-digested S protein (extracellular domain of the SARS-CoV-2 S protein cleaved at S1/S2) (SARS-CoV-2); assay: cryo-EM structure
[2] = molecular target: trimeric extracellular domain of the S protein of SARS-CoV-2 (SARS-CoV-2) (UniProt P0DTC2); assay: cryo-EM structure; S protein incubated with PD of ACE2; three conformations

peptidase domain (PD) of ACE2 (domain or fragment)
percent of particles in conformation 1 (one PD bound) [1]: 9.5%
percent of particles in conformation 2 (two PD bound) [1]: 84.5%
percent of particles in conformation 3 (two PD bound) [1]: 6%
stoichiometry N (PD per S(p) trimer) [1]: 1 and 2
percent of particles in conformation 2 (one PD bound) [2]: 24.4%
percent of particles in conformation 3 (one PD bound) [2]: 67.7%
